The target of this experiment is T1, A1PI (Homo sapiens, UniProt P01009).
T1 construct: Human plasma is currently the only approved source of therapeutic AlPI
Put plainly: A1PI binding on peptide-resin column, injection of 1 mg A1PI in equilibration buffer. Particulars: for % of Total A1PI Eluted by Fraction (Based on Absorbance at 280 nm), 1M NaCl / % of Total A1PI Eluted by Fraction (Based on Absorbance at 280 nm), 2% Acetic Acid / % of Total A1PI Eluted by Fraction (Based on Absorbance at 280 nm), Flowthrough: 1 mg A1PI; for Percent A1PI Eluted by Fraction Based on Absorbance at 280 nm, 1M NaCl / Percent A1PI Eluted by Fraction Based on Absorbance at 280 nm, 2% Acetic Acid / Percent A1PI Eluted by Fraction Based on Absorbance at 280 nm, Flowthrough / Percent A1PI Eluted by Fraction, 1M NaCl / Percent A1PI Eluted by Fraction, 2% Acetic Acid / Percent A1PI Eluted by Fraction, Flowthrough: 1 mg A1PI in equilibration buffer. Here is the method:
Confirmatory binding assays were performed in a column chromatographic format on a microbore HPLC using individual peptide sequences synthesized directly onto the Toyopearl 650 M Chelate resin which had been modified with Totda followed by an alanine residue (A-Totda-Toyopearl), at a final substitution density of 0.1 mmole/g resin. The resin was packed into 0.4×5 cm columns (Thomson, Springfield, Va.) and tested on the Michrom HPLC system (Michrom BioResources, Auburn, Calif.). The elution program for all trials utilized the following method. The column was pre-equilibrated with equilibration buffer (as above). 1 ml of sample was injected and allowed sufficient time to flowthrough the column using equilibration buffer. The column was then washed with step elutions of 1M NaCl and 3M NaCl in equilibration buffer. The column was exposed to equilibration buffer with 0.1M NaCl. Any remaining protein was eluted with elution buffer (2% by volume glacial acetic acid in water).
A Gilson FC204 fraction collector at the HPLC outlet collected individual eluates for further analysis. Fractions collected from the 2% acetic acid eluates were neutralized with 2M Tris, pH 10.5 to bring the pH to neutrality. The protein samples were reconstituted in equilibration buffer unless otherwise stated. The samples were analyzed by the integration of the absorbance at 280 nm or by immunonephelometry. The specific method of determination is presented for each figure.
Tables 2 and 3 present the elution profiles for 19 sequences based on the injection of 1 mg AlPI in equilibration buffer at 4° C. and 20° C., respectively. The columns were run at a constant flow rate of865 μl/min (413 cm/hr) or 523 μl/min (250 cm/hr). No dependence of the elution profile with flow rate was found. The Percent AlPI Eluted by Fraction represents the amount eluted in the flowthrough, 1M NaCl wash, and 2% acetic acid fractions relative to the total AlPI eluted. The percentages are based on either the integration of the peak areas at […]

Setting [1] is: VIWLVR N-terminal point mutations, 4° C.

Ends that are not written are not given here.

T1 sequence (P01009 25-418): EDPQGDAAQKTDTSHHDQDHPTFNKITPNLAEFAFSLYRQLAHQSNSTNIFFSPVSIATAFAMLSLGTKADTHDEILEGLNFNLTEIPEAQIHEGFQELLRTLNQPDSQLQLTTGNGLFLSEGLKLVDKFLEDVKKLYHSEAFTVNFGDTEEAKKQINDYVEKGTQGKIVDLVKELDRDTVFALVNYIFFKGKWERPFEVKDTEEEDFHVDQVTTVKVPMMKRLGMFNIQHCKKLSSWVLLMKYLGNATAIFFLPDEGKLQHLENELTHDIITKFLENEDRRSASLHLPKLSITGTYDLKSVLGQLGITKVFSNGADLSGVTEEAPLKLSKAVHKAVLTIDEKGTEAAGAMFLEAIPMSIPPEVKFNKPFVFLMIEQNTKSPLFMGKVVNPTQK

With “V R F L V R: point mutation of VIFLVR, position 2 (VRFLVR)”, where the note is “VIFLVR point mutations, 4° C.”, the “% of Total A1PI Eluted by Fraction (Based on Absorbance at 280 nm), 1M NaCl” value (shortened to “% of Total A1PI Eluted by Fraction … 1M NaCl”) amounted to 39%; the “% of Total A1PI Eluted by Fraction (Based on Absorbance at 280 nm), 2% Acetic Acid” value was determined as 61%; the “% of Total A1PI Eluted by Fraction (Based on Absorbance at 280 nm), Flowthrough” value (“% of Total A1PI Eluted by Fraction … Flowthrough” below) was determined as 0%.
For the substance “V I F A V R: point mutation of VIFLVR, position 4 (VIFAVR)”, for the setting “VIFLVR point mutations, 4° C.”, the “% of Total A1PI Eluted by Fraction … 1M NaCl” value is listed as 46%; the “% of Total A1PI Eluted by Fraction (Based on Absorbance at 280 nm), 2% Acetic Acid” value is given as 54%; the “% of Total A1PI Eluted by Fraction … Flowthrough” value turned out to be 0%. Under “VIFLVR point mutations, 20° C.”, the “% of Total A1PI Eluted by Fraction … 1M NaCl” value is given as 11%; the “% of Total A1PI Eluted by Fraction (Based on Absorbance at 280 nm), 2% Acetic Acid” value came to 89%; the “% of Total A1PI Eluted by Fraction … Flowthrough” value was 0%.
Take “HHWLVR: point mutation of VIWLVR on Ala-Totda-Toyopearl (not fully specified (C-terminus))”: under setting [1], the “% of Total A1PI Eluted by Fraction … 1M NaCl” value came to 86%; the “% of Total A1PI Eluted by Fraction (Based on Absorbance at 280 nm), 2% Acetic Acid” value amounted to 14%; the “% of Total A1PI Eluted by Fraction … Flowthrough” value is on record as 0%.
With WSSKRY, under “4° C.”, the “Percent A1PI Eluted by Fraction Based on Absorbance at 280 nm, 1M NaCl” value was 91%; the “Percent A1PI Eluted by Fraction Based on Absorbance at 280 nm, 2% Acetic Acid” value stood at 9%; the “Percent A1PI Eluted by Fraction Based on Absorbance at 280 nm, Flowthrough” value is on record as 0%. Besides, where the note is “20° C.”, the “Percent A1PI Eluted by Fraction, 1M NaCl” value worked out at 97%; the “Percent A1PI Eluted by Fraction, 2% Acetic Acid” value is 3%; the “Percent A1PI Eluted by Fraction, Flowthrough” value was 0%.
For the substance “NHWLVR: point mutation of VIWLVR on Ala-Totda-Toyopearl (not fully specified (C-terminus))”, under setting [1], the “% of Total A1PI Eluted by Fraction … 1M NaCl” value was determined as 83%; the “% of Total A1PI Eluted by Fraction (Based on Absorbance at 280 nm), 2% Acetic Acid” value stood at 17%; the “% of Total A1PI Eluted by Fraction … Flowthrough” value came out at 0%.
For the substance RRKYLW, for the setting “4° C.”, the “Percent A1PI Eluted by Fraction Based on Absorbance at 280 nm, 1M NaCl” value was 92%; the “Percent A1PI Eluted by Fraction Based on Absorbance at 280 nm, 2% Acetic Acid” value came out at 8%; the “Percent A1PI Eluted by Fraction Based on Absorbance at 280 nm, Flowthrough” value is reported as 0%. For the same substance, under “20° C.”, the “Percent A1PI Eluted by Fraction, 1M NaCl” value is reported as 82%; the “Percent A1PI Eluted by Fraction, 2% Acetic Acid” value is listed as 18%; the “Percent A1PI Eluted by Fraction, Flowthrough” value was 0%.
Turning to “D I F L V R: point mutation of VIFLVR, position 1 (DIFLVR)”, for the setting “VIFLVR point mutations, 4° C.”, the “% of Total A1PI Eluted by Fraction … 1M NaCl” value is 6%; the “% of Total A1PI Eluted by Fraction (Based on Absorbance at 280 nm), 2% Acetic Acid” value is reported as 10%; the “% of Total A1PI Eluted by Fraction … Flowthrough” value was 84%. Under “VIFLVR point mutations, 20° C.”, the “% of Total A1PI Eluted by Fraction … 1M NaCl” value was 9%; the “% of Total A1PI Eluted by Fraction (Based on Absorbance at 280 nm), 2% Acetic Acid” value came out at 21%; the “% of Total A1PI Eluted by Fraction … Flowthrough” value stood at 70%.
Take “V A F L V R: point mutation of VIFLVR, position 2 (VAFLVR)”: under “VIFLVR point mutations, 4° C.”, the “% of Total A1PI Eluted by Fraction … 1M NaCl” value worked out at 55%; the “% of Total A1PI Eluted by Fraction (Based on Absorbance at 280 nm), 2% Acetic Acid” value is recorded as 45%; the “% of Total A1PI Eluted by Fraction … Flowthrough” value turned out to be 0%. Further, under “VIFLVR point mutations, 20° C.”, the “% of Total A1PI Eluted by Fraction … 1M NaCl” value was found to be 8%; the “% of Total A1PI Eluted by Fraction (Based on Absorbance at 280 nm), 2% Acetic Acid” value was 92%; the “% of Total A1PI Eluted by Fraction … Flowthrough” value stood at 0%.

The record behind these values is US5985836A, “Alpha-1 proteinase inhibitor binding peptides” (Bayer Corporation, priority 1998, dated 1999).
